Results published in patent US20160068605A1 (Janssen / Centocor, published 2016).

Assays:
[1] = target: T1, cyno CD123 ECD displayed on pDisplay-transfected cells (cynomolgus monkey); assay: MSD-CAT, cynoCD123 cells, assay-1; apparent KD (bivalent)
T1 construct: ECD anchored on the surface of stably transfected HEK293 cells; also called cynoCD123 SP1 cells; cynoCD123 cells
T1 chain: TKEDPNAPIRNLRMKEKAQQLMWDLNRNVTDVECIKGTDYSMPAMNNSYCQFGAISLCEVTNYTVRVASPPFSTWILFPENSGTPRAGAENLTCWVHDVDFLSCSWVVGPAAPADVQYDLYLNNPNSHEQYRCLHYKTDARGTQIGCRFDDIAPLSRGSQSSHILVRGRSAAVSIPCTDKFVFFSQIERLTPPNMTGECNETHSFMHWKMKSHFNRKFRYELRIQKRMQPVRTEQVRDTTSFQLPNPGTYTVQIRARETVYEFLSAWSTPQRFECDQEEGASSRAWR

[2] = target: T2, Recombinant human CD123 SP2 ECD protein (human, UniProt P26951 101-303); assay: SPR ProteOn, captured mAb
T2 construct: also called rhCD123 SP2; CD123 ECD SP2
T2 sequence: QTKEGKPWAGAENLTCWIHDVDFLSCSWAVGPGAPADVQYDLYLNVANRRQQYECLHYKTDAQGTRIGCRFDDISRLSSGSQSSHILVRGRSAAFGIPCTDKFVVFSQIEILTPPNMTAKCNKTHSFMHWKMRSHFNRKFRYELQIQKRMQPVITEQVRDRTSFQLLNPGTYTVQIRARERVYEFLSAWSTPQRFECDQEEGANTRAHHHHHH

[3] = target: T3, Recombinant human CD123 SP1 ECD-His tag protein (human, UniProt P26951 20-305); assay: SPR ProteOn, captured mAb
T3 construct: bought from R&D Systems (#301-R3/CF); biotinylated for some assays; also called rhCD123 SP1; huCD123 ECD SP1
T3 sequence: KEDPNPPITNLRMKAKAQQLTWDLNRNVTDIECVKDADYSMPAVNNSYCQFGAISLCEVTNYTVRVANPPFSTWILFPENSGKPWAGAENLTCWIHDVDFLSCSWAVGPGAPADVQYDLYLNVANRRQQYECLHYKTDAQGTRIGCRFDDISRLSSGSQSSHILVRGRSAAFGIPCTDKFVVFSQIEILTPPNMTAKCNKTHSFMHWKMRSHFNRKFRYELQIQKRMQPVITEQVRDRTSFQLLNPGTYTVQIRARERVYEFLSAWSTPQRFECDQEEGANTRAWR

[4] = target: T1, cyno CD123 ECD displayed on …; assay: MSD-CAT on pDisplay cells
Method: After equilibration the plate was centrifuged for 5 min ˜1000 rpm and free anti-CD3 detected on the supernatant. […] The assay buffer was removed without washing and 50 μL/well of 0.7 μg/mL of biotinylated antigen in assay buffer were added to MSD plates and incubated overnight (˜16 hr at 4° C.). After overnight incubation, the plates were blocked by adding 150 μL/well of assay buffer without removing coating antigen, incubated for ˜1 hr at ambient temperature and washed 5 times with wash buffer (assay buffer without BSA). 50 μL/well of the supernantants from samples plate were transferred to antigen-coated plates, incubated for 60 min, and then washed three times with wash Buffer. After this 50 μL per well of ruthenium labeled detection antibody(anti-human H+L) were added and incubated for 1 hr. After 1 hr the plates were washed and 150 μL of MSD Read Buffer (prepared by diluting 1:4 of stock into d. H₂O) were added per well. The plates were read immediately on the MSD Sector Imager 6000 Reader for luminescence levels. ECL signal detected by MSD was expressed in term of % free antibody in the mixture and the data was analyzed to determine affinity using a user defined equation (derived from the law of mass action) introduced in Prism software.

[5] = target: T1, cyno CD123 ECD displayed on …; assay: MSD-CAT on cyno pDisplay cells
Method: Cell lines used were human pDisplay CD and cyno pDisplay CD123SP1. […] These samples were prepared in DMEM Glutamax medium containing 0.05% Azide, 1% BSA, 3 mM EDTA. The receptor numbers of (3.15-4.18)×10⁶ hCD123/cell and (4.78-9.24) 10⁶ cyCD123/cell were converted to M receptor concentration in the mixture on the basis of the volume of reaction, the cell density (cells/L) and the Avogadro's number. […] After equilibration the plate was centrifuged for 5 min ˜1000 rpm and free anti-CD3 detected on the supernatant. […] The assay buffer was removed without washing and 50 μL/well of 0.7 μg/mL of biotinylated antigen in assay buffer were added to MSD plates and incubated overnight (˜16 hr at 4° C.). After overnight incubation, the plates were blocked by adding 150 μL/well of assay buffer without removing coating antigen, incubated for ˜1 hr at ambient temperature and washed 5 times with wash buffer (assay buffer without BSA). 50 μL/well of the supernantants from samples plate were transferred to antigen-coated plates, incubated for 60 min, and then washed three times with wash Buffer. […] After 1 hr the plates were washed and 150 μL of MSD Read Buffer (prepared by diluting 1:4 of stock into d. H₂O) were added per well. The plates were read immediately on the MSD Sector Imager 6000 Reader for luminescence levels.

Kd [1]: 0.832 nM | Kd [2]: 0.363 nM | koff [2]: 0.000978 s⁻¹ | kon [2]: 2.69e+06 M⁻¹ s⁻¹ | Kd [3]: 0.57 nM | koff [3]: 0.00082 s⁻¹ | kon [3]: 1.44e+06 M⁻¹ s⁻¹ | fold weaker than to human CD123 SP1 [4]: > 10 fold | Kd [5]: > 12 nM
B1: I3RB18 (antibody, IgG1, V domains shown)
VH: EVQLVQSGAEVKKPGESLKISCKGSGYSFTSYWISWVRQMPGKGLEWMGIIDPSDSDTRYSPSFQGQVTISADKSISTAYLQWSSLKASDTAMYYCARGDGSTDLDYWGQGTLVTVSS
VL: EIVLTQSPGTLSLSPGERATLSCRASQSVSSSYLAWYQQKPGQAPRLLIYGASSRATGIPDRFSGSGSGTDFTLTISRLEPEDFAVYYCQQDYGFPWTFGQGTKVEIK
notes: IgG1; also called 13RB18; mAb I3RB18
